settings: Niallia circulans; pH 5; 25 °C; Urea; Fluorescence; Sodium acetate 50mM; transition: 2; reversible: yes; structure 1K85

Chitinase A1 Y620L, P20533, sequence (P20533 whole entry Y620L): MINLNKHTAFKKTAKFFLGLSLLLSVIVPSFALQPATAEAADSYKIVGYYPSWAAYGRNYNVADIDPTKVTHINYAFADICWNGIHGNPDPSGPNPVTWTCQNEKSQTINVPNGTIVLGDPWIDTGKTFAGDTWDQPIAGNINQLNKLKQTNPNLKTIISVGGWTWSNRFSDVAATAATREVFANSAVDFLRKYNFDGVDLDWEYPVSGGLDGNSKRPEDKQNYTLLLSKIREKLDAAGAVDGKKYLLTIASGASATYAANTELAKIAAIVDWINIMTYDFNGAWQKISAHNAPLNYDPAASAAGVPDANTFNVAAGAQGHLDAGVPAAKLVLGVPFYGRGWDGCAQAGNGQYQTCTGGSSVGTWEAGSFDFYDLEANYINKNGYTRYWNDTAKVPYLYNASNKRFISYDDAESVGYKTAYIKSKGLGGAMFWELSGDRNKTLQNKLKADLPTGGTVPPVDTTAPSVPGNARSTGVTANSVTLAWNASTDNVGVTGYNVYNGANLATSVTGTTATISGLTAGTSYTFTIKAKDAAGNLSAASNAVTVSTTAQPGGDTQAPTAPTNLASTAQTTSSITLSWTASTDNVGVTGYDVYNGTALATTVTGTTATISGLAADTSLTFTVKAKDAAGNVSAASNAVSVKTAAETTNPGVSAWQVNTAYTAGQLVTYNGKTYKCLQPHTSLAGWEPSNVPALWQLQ
Chitinase A1 A609G, P20533, sequence (P20533 whole entry A609G): as the sequence (P20533 whole entry Y620L) above, with A609G, L620Y counted along it
Chitinase A1 Y620F, P20533, sequence (P20533 whole entry Y620F): as the sequence (P20533 whole entry Y620L) above, with L620F counted along it
Chitinase A1 Y592F, P20533, sequence (P20533 whole entry Y592F): as the sequence (P20533 whole entry Y620L) above, with Y592F, L620Y counted along it
Chitinase A1 I611A, P20533, sequence (P20533 whole entry I611A): as the sequence (P20533 whole entry Y620L) above, with I611A, L620Y counted along it
Chitinase A1 V642A, P20533, sequence (P20533 whole entry V642A): as the sequence (P20533 whole entry Y620L) above, with L620Y, V642A counted along it
Chitinase A1 I576A, P20533, sequence (P20533 whole entry I576A): as the sequence (P20533 whole entry Y620L) above, with I576A, L620Y counted along it
Chitinase A1 N596A, P20533, sequence (P20533 whole entry N596A): as the sequence (P20533 whole entry Y620L) above, with N596A, L620Y counted along it
Chitinase A1 V594A, P20533, sequence (P20533 whole entry V594A): as the sequence (P20533 whole entry Y620L) above, with V594A, L620Y counted along it
Chitinase A1 F622L, P20533, sequence (P20533 whole entry F622L): as the sequence (P20533 whole entry Y620L) above, with L620Y, F622L counted along it
Chitinase A1 A626G, P20533, sequence (P20533 whole entry A626G): as the sequence (P20533 whole entry Y620L) above, with L620Y, A626G counted along it
Chitinase A1 L566A, P20533, sequence (P20533 whole entry L566A): as the sequence (P20533 whole entry Y620L) above, with L566A, L620Y counted along it
Chitinase A1 S637A, P20533, sequence (P20533 whole entry S637A): as the sequence (P20533 whole entry Y620L) above, with L620Y, S637A counted along it
Chitinase A1 V589A, P20533, sequence (P20533 whole entry V589A): as the sequence (P20533 whole entry Y620L) above, with V589A, L620Y counted along it
Chitinase A1 T602A, P20533, sequence (P20533 whole entry T602A): as the sequence (P20533 whole entry Y620L) above, with T602A, L620Y counted along it
Chitinase A1 V604A, P20533, sequence (P20533 whole entry V604A): as the sequence (P20533 whole entry Y620L) above, with V604A, L620Y counted along it
Chitinase A1 L614A, P20533, sequence (P20533 whole entry L614A): as the sequence (P20533 whole entry Y620L) above, with L614A, L620Y counted along it
Chitinase A1 Y592L, P20533, sequence (P20533 whole entry Y592L): as the sequence (P20533 whole entry Y620L) above, with Y592L, L620Y counted along it
Chitinase A1 V640A, P20533, sequence (P20533 whole entry V640A): as the sequence (P20533 whole entry Y620L) above, with L620Y, V640A counted along it
Chitinase A1 S568A, P20533, sequence (P20533 whole entry S568A): as the sequence (P20533 whole entry Y620L) above, with S568A, L620Y counted along it
Chitinase A1 V624A, P20533, sequence (P20533 whole entry V624A): as the sequence (P20533 whole entry Y620L) above, with L620Y, V624A counted along it
Chitinase A1 L578A, P20533, sequence (P20533 whole entry L578A): as the sequence (P20533 whole entry Y620L) above, with L578A, L620Y counted along it

Which “ddG of mutation (higher = less stable)” value does the source give for Chitinase A1 S637A, P20533 here?
The value was 1.42 kcal/mol.

What about the denaturant m value of the same substance?
Its denaturant m value is 1.13 kcal/mol/M.

What about the “denaturant midpoint (higher = more stable)” value (from here on “denaturant midpoint”) of the same substance?
Its value is 4.97 M.

And the unfolding free energy?
Its unfolding free energy is 5.28 kcal/mol.

Which “ddG of mutation (higher = less stable)” value does the source give for Chitinase A1 V640A, P20533 here?
Its value is 1.66 kcal/mol.

And the denaturant m value?
Its denaturant m value is 1.22 kcal/mol/M.

What about the “denaturant midpoint” value of the same substance?
The value was 4.76 M.

What about the unfolding free energy of the same substance?
Its unfolding free energy is 5.04 kcal/mol.

With Chitinase A1 I576A, P20533 as the substance, how does the “ddG of mutation (higher = less stable)” value read?
Its value is 3.11 kcal/mol.

And the denaturant m value?
The denaturant m value was 1.15 kcal/mol/M.

And the “denaturant midpoint” value?
The value was 3.5 M.

And the unfolding free energy?
Its unfolding free energy is 3.59 kcal/mol.

Which “ddG of mutation (higher = less stable)” value does the source give for Chitinase A1 V594A, P20533 here?
The value was 4.19 kcal/mol.

And the denaturant m value?
The denaturant m value was 1.27 kcal/mol/M.

What about the “denaturant midpoint” value of the same substance?
Its value is 2.56 M.

And the unfolding free energy?
The unfolding free energy was 2.51 kcal/mol.

Which results are given for Chitinase A1 A626G, P20533?
ddG of mutation (higher = less stable): 1.88 kcal/mol; denaturant m value: 1.22 kcal/mol/M; denaturant midpoint (higher = more stable): 4.57 M; unfolding free energy: 4.82 kcal/mol

For Chitinase A1 V589A, P20533, which “ddG of mutation (higher = less stable)” value is on record?
The value was 1.77 kcal/mol.

What about the denaturant m value of the same substance?
The denaturant m value was 1.16 kcal/mol/M.

What about the “denaturant midpoint” value of the same substance?
The value was 4.66 M.

And the unfolding free energy?
The unfolding free energy was 4.93 kcal/mol.

What does the source list for Chitinase A1 N596A, P20533?
ddG of mutation (higher = less stable): 1 kcal/mol; denaturant m value: 0.99 kcal/mol/M; denaturant midpoint (higher = more stable): 5.33 M; unfolding free energy: 5.7 kcal/mol

What does the source list for Chitinase A1 V642A, P20533?
ddG of mutation (higher = less stable): 1.44 kcal/mol; denaturant m value: 1.15 kcal/mol/M; denaturant midpoint (higher = more stable): 4.95 M; unfolding free energy: 5.26 kcal/mol

Which results are given for Chitinase A1 V624A, P20533?
ddG of mutation (higher = less stable): 4.07 kcal/mol; denaturant m value: 1.19 kcal/mol/M; denaturant midpoint (higher = more stable): 2.67 M; unfolding free energy: 2.63 kcal/mol

What does the source list for Chitinase A1 F622L, P20533?
ddG of mutation (higher = less stable): 2.5 kcal/mol; denaturant m value: 1.08 kcal/mol/M; denaturant midpoint (higher = more stable): 4.03 M; unfolding free energy: 4.2 kcal/mol

What does the source list for Chitinase A1 A609G, P20533?
ddG of mutation (higher = less stable): 2.33 kcal/mol; denaturant m value: 1.18 kcal/mol/M; denaturant midpoint (higher = more stable): 4.18 M; unfolding free energy: 4.37 kcal/mol

For Chitinase A1 Y592L, P20533, which “ddG of mutation (higher = less stable)” value is on record?
The value was 5.97 kcal/mol.

What about the denaturant m value of the same substance?
Its denaturant m value is 1.46 kcal/mol/M.

What about the “denaturant midpoint” value of the same substance?
Its value is 1.02 M.

And the unfolding free energy?
The unfolding free energy was 0.73 kcal/mol.

With Chitinase A1 L566A, P20533 as the substance, how does the “ddG of mutation (higher = less stable)” value read?
Its value is 2.52 kcal/mol.

And the denaturant m value?
Its denaturant m value is 1.19 kcal/mol/M.

What about the “denaturant midpoint” value of the same substance?
Its value is 4.01 M.

And the unfolding free energy?
Its unfolding free energy is 4.18 kcal/mol.

With Chitinase A1 L614A, P20533 as the substance, how does the “ddG of mutation (higher = less stable)” value read?
The value was 5.26 kcal/mol.

And the denaturant m value?
Its denaturant m value is 1.13 kcal/mol/M.

And the “denaturant midpoint” value?
The value was 1.63 M.

What about the unfolding free energy of the same substance?
Its unfolding free energy is 1.44 kcal/mol.

With Chitinase A1 T602A, P20533 as the substance, how does the “ddG of mutation (higher = less stable)” value read?
Its value is -1.49 kcal/mol.

What about the denaturant m value of the same substance?
Its denaturant m value is 0.89 kcal/mol/M.

And the “denaturant midpoint” value?
Its value is 7.49 M.

What about the unfolding free energy of the same substance?
Its unfolding free energy is 8.19 kcal/mol.

With Chitinase A1 Y592F, P20533 as the substance, how does the “ddG of mutation (higher = less stable)” value read?
The value was 1.77 kcal/mol.

And the denaturant m value?
Its denaturant m value is 1.25 kcal/mol/M.

What about the “denaturant midpoint” value of the same substance?
The value was 4.66 M.

And the unfolding free energy?
The unfolding free energy was 4.93 kcal/mol.

With Chitinase A1 Y620L, P20533 as the substance, how does the “ddG of mutation (higher = less stable)” value read?
Its value is 4.38 kcal/mol.

And the denaturant m value?
The denaturant m value was 1.26 kcal/mol/M.

And the “denaturant midpoint” value?
The value was 2.4 M.

What about the unfolding free energy of the same substance?
Its unfolding free energy is 2.32 kcal/mol.

Which results are given for Chitinase A1 I611A, P20533?
ddG of mutation (higher = less stable): 3.63 kcal/mol; denaturant m value: 1.13 kcal/mol/M; denaturant midpoint (higher = more stable): 3.05 M; unfolding free energy: 3.07 kcal/mol

Which “ddG of mutation (higher = less stable)” value does the source give for Chitinase A1 Y620F, P20533 here?
The value was 1.52 kcal/mol.

What about the denaturant m value of the same substance?
The denaturant m value was 1.31 kcal/mol/M.

And the “denaturant midpoint” value?
Its value is 4.88 M.

What about the unfolding free energy of the same substance?
Its unfolding free energy is 5.18 kcal/mol.

With Chitinase A1 V604A, P20533 as the substance, how does the “ddG of mutation (higher = less stable)” value read?
The value was 1.58 kcal/mol.

What about the denaturant m value of the same substance?
Its denaturant m value is 1.1 kcal/mol/M.

And the “denaturant midpoint” value?
The value was 4.83 M.

What about the unfolding free energy of the same substance?
Its unfolding free energy is 5.12 kcal/mol.

For Chitinase A1 L578A, P20533, which “ddG of mutation (higher = less stable)” value is on record?
The value was 5.54 kcal/mol.

What about the denaturant m value of the same substance?
The denaturant m value was 1.16 kcal/mol/M.

And the “denaturant midpoint” value?
The value was 1.39 M.

What about the unfolding free energy of the same substance?
The unfolding free energy was 1.16 kcal/mol.

For Chitinase A1 S568A, P20533, which “ddG of mutation (higher = less stable)” value is on record?
Its value is -0.1 kcal/mol.

And the denaturant m value?
The denaturant m value was 1 kcal/mol/M.

And the “denaturant midpoint” value?
The value was 6.29 M.

And the unfolding free energy?
The unfolding free energy was 6.8 kcal/mol.

— FireProtDB (doi:10.1016/j.jmb.2007.09.088)
